Laboratory results published in publication PMC12394453.
“And” between values parts separate entries of the source, which are not always exact repeats. Equal values may be shown once.

Biological target: HeV-G (wild-type Hendra virus attachment glycoprotein G, soluble recombinant) (Hendra virus) (UniProt O89343)
Experiment: SEC; oligomeric states of the purified G protein (Supplementary Fig. 7)

Sequence of HeV-G (wild-type Hendra virus attachment glycoprotein G, soluble recombinant) (O89343 71-604 limits assumed): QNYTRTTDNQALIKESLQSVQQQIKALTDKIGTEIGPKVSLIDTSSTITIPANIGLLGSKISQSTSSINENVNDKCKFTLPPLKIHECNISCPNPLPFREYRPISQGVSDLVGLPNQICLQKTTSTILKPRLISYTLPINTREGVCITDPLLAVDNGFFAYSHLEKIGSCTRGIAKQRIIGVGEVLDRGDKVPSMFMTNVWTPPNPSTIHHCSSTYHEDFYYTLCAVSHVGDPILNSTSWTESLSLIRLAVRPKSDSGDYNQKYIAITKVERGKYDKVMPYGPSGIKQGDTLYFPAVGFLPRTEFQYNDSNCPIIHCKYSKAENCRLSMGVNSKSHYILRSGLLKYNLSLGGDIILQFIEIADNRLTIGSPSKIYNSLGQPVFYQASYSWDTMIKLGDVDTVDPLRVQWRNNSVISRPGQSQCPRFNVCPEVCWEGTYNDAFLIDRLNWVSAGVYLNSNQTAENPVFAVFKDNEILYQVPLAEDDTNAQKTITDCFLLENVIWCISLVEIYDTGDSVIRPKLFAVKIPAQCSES

HeV-G (wild-type Hendra virus attachment glycoprotein G, soluble recombinant) (from UniProt O89343 1-604) (natural protein)
stoichiometry N: 4 and 2
